Experimental data taken from US20240117018A1.

Assays:
Assay in all cases: cell-based or functional assay
[1] = target: HIV-1 Env of pseudovirus Ce1172_H1 (HIV-1)
[2] = target: HIV-1 Env of pseudovirus 1012_11_TC21_3257 (HIV-1)
[3] = target: HIV-1 Env of pseudovirus ZM109F.PB4 (HIV-1)
[4] = target: HIV-1 Env of pseudovirus Q461.e2 (HIV-1)
[5] = target: HIV-1 Env of pseudovirus Du172.17 (HIV-1)
[6] = target: HIV-1 Env of pseudovirus 7030102001E5(Rev-) (HIV-1)
[7] = target: HIV-1 Env of pseudovirus ZM249M.PL1 (HIV-1)
[8] = target: HIV-1 Env of pseudovirus 6244_13_B5_4576 (HIV-1)
[9] = target: HIV-1 Env of pseudovirus RHPA4259.7 (HIV-1)
[10] = target: HIV-1 Env of pseudovirus 1394C9G1(Rev-) (HIV-1)
[11] = target: HIV-1 Env of pseudovirus CNE53 (HIV-1)
[12] = target: HIV-1 Env of pseudovirus CNE8 (HIV-1)
[13] = target: HIV-1 Env of pseudovirus 6240_08_TA5_4622 (HIV-1)
[14] = target: HIV-1 Env of pseudovirus Q842.d12 (HIV-1)
[15] = target: HIV-1 Env of pseudovirus 0260.v5.c36 (HIV-1)
[16] = target: HIV-1 Env of pseudovirus 246F C1G (HIV-1)
[17] = target: HIV-1 Env of pseudovirus CNE17 (HIV-1)
[18] = target: HIV-1 Env of pseudovirus Ce704809221_1B3 (HIV-1)
[19] = target: HIV-1 Env of pseudovirus AC10.0.29 (HIV-1)
[20] = target: HIV-1 Env of pseudovirus Ce0393_C3 (HIV-1)
[21] = target: HIV-1 Env of pseudovirus Ce2060_G9 (HIV-1)
[22] = target: HIV-1 Env of pseudovirus TRJO4551.58 (HIV-1)
[23] = target: HIV-1 Env of pseudovirus T250-4 (HIV-1)
[24] = target: HIV-1 Env of pseudovirus CNE52 (HIV-1)
[25] = target: HIV-1 Env of pseudovirus Du422.1 (HIV-1)
[26] = target: HIV-1 Env of pseudovirus HIV-16055-2.3 (HIV-1)
[27] = target: HIV-1 Env of pseudovirus Ce2010_F5 (HIV-1)
[28] = target: HIV-1 Env of pseudovirus CNE58 (HIV-1)
[29] = target: HIV-1 Env of pseudovirus CAP45.2.00.G3 (HIV-1)
[30] = target: HIV-1 Env of pseudovirus TRO.11 (HIV-1)
[31] = target: HIV-1 Env of pseudovirus ZM214M.PL15 (HIV-1)
[32] = target: HIV-1 Env of pseudovirus 1056_10_TA11_1826 (HIV-1)
[33] = target: HIV-1 Env of pseudovirus CNE30 (HIV-1)
[34] = target: HIV-1 Env of pseudovirus ZM53M.PB12 (HIV-1)

Question: What does the source list for PGT151 (antibody)?
Answer: neutralization IC50 [1]: > 50 µg/mL; neutralization IC80 [1]: > 50 µg/mL; neutralization IC50 [2]: > 50 µg/mL; neutralization IC80 [2]: > 50 µg/mL; neutralization IC50 [3]: 0.609 µg/mL; neutralization IC80 [3]: > 50 µg/mL; neutralization IC50 [4]: 12.6 µg/mL; neutralization IC80 [4]: > 50 µg/mL; neutralization IC50 [5]: 0.003 µg/mL; neutralization IC80 [5]: 0.013 µg/mL; neutralization IC50 [6]: 0.001 µg/mL; neutralization IC80 [6]: 0.011 µg/mL; neutralization IC50 [7]: 0.004 µg/mL; neutralization IC80 [7]: 0.015 µg/mL; neutralization IC50 [8]: > 50 µg/mL; neutralization IC80 [8]: > 50 µg/mL; neutralization IC50 [9]: 0.006 µg/mL; neutralization IC80 [9]: 0.033 µg/mL; neutralization IC50 [10]: 0.022 µg/mL; neutralization IC80 [10]: 0.733 µg/mL; neutralization IC50 [11]: > 50 µg/mL; neutralization IC80 [11]: > 50 µg/mL; IC50 (Titer in TZM.bl cells) [12]: > 50 µg/mL; IC80 (Titer in TZM.bl cells) [12]: > 50 µg/mL; neutralization IC50 [13]: 0.046 µg/mL; neutralization IC80 [13]: 0.42 µg/mL; neutralization IC50 [14]: 0.001 µg/mL; neutralization IC80 [14]: 0.014 µg/mL; neutralization IC50 [15]: 0.427 µg/mL; neutralization IC80 [15]: > 50 µg/mL; neutralization IC50 [16]: > 50 µg/mL; neutralization IC80 [16]: > 50 µg/mL; neutralization IC50 [17]: 0.093 µg/mL; neutralization IC80 [17]: > 50 µg/mL; neutralization IC50 [18]: > 50 µg/mL; neutralization IC80 [18]: > 50 µg/mL; neutralization IC50 [19]: 0.007 µg/mL; neutralization IC80 [19]: 0.023 µg/mL; neutralization IC50 [20]: > 50 µg/mL; neutralization IC80 [20]: > 50 µg/mL; neutralization IC50 [21]: 0.135 µg/mL; neutralization IC80 [21]: > 50 µg/mL; neutralization IC50 [22]: 0.496 µg/mL; neutralization IC80 [22]: 4.22 µg/mL; neutralization IC50 [23]: 0.005 µg/mL; neutralization IC80 [23]: 0.014 µg/mL; neutralization IC50 [24]: 0.004 µg/mL; neutralization IC80 [24]: 0.017 µg/mL; neutralization IC50 [25]: 4.6 µg/mL; neutralization IC80 [25]: > 50 µg/mL; neutralization IC50 [26]: 0.143 µg/mL; neutralization IC80 [26]: > 50 µg/mL; neutralization IC50 [27]: > 50 µg/mL; neutralization IC80 [27]: > 50 µg/mL; neutralization IC50 [28]: 0.004 µg/mL; neutralization IC80 [28]: 0.016 µg/mL; neutralization IC50 [29]: 0.007 µg/mL; neutralization IC80 [29]: > 50 µg/mL; neutralization IC50 [30]: > 50 µg/mL; neutralization IC80 [30]: > 50 µg/mL; neutralization IC50 [31]: 0.008 µg/mL; neutralization IC80 [31]: 0.045 µg/mL; neutralization IC50 [32]: 0.008 µg/mL; neutralization IC80 [32]: 0.048 µg/mL; neutralization IC50 [33]: > 50 µg/mL; neutralization IC80 [33]: > 50 µg/mL; neutralization IC50 [34]: > 50 µg/mL; neutralization IC80 [34]: > 50 µg/mL

Question: Which results are given for PGT145 (antibody)?
Answer: neutralization IC50 [1]: 0.26 µg/mL; neutralization IC80 [1]: 2.06 µg/mL; neutralization IC50 [2]: 0.009 µg/mL; neutralization IC80 [2]: 0.025 µg/mL; neutralization IC50 [3]: 0.042 µg/mL; neutralization IC80 [3]: 0.234 µg/mL; neutralization IC50 [4]: 7.8 µg/mL; neutralization IC80 [4]: > 50 µg/mL; neutralization IC50 [5]: > 50 µg/mL; neutralization IC80 [5]: > 50 µg/mL; neutralization IC50 [6]: > 50 µg/mL; neutralization IC80 [6]: > 50 µg/mL; neutralization IC50 [7]: 1.44 µg/mL; neutralization IC80 [7]: > 50 µg/mL; neutralization IC50 [8]: 7.27 µg/mL; neutralization IC80 [8]: 44.5 µg/mL; neutralization IC50 [9]: 0.029 µg/mL; neutralization IC80 [9]: 0.095 µg/mL; neutralization IC50 [10]: 0.001 µg/mL; neutralization IC80 [10]: 0.005 µg/mL; neutralization IC50 [11]: 0.006 µg/mL; neutralization IC80 [11]: 0.084 µg/mL; IC50 (Titer in TZM.bl cells) [12]: 0.272 µg/mL; IC80 (Titer in TZM.bl cells) [12]: 2.24 µg/mL; neutralization IC50 [13]: > 50 µg/mL; neutralization IC80 [13]: > 50 µg/mL; neutralization IC50 [14]: 0.032 µg/mL; neutralization IC80 [14]: 0.552 µg/mL; neutralization IC50 [15]: > 50 µg/mL; neutralization IC80 [15]: > 50 µg/mL; neutralization IC50 [16]: > 50 µg/mL; neutralization IC80 [16]: > 50 µg/mL; neutralization IC50 [17]: 0.091 µg/mL; neutralization IC80 [17]: 1.16 µg/mL; neutralization IC50 [18]: 0.102 µg/mL; neutralization IC80 [18]: 0.71 µg/mL; neutralization IC50 [19]: 0.01 µg/mL; neutralization IC80 [19]: 0.025 µg/mL; neutralization IC50 [20]: 0.112 µg/mL; neutralization IC80 [20]: 1.23 µg/mL; neutralization IC50 [21]: 0.016 µg/mL; neutralization IC80 [21]: 0.205 µg/mL; neutralization IC50 [22]: > 50 µg/mL; neutralization IC80 [22]: > 50 µg/mL; neutralization IC50 [23]: 0.002 µg/mL; neutralization IC80 [23]: 0.039 µg/mL; neutralization IC50 [24]: 0.02 µg/mL; neutralization IC80 [24]: 0.091 µg/mL; neutralization IC50 [25]: 22.6 µg/mL; neutralization IC80 [25]: > 50 µg/mL; neutralization IC50 [26]: 0.003 µg/mL; neutralization IC80 [26]: 0.051 µg/mL; neutralization IC50 [27]: > 50 µg/mL; neutralization IC80 [27]: > 50 µg/mL; neutralization IC50 [28]: 0.183 µg/mL; neutralization IC80 [28]: 7.41 µg/mL; neutralization IC50 [29]: 0.001 µg/mL; neutralization IC80 [29]: 0.007 µg/mL; neutralization IC50 [30]: 0.04 µg/mL; neutralization IC80 [30]: 0.118 µg/mL; neutralization IC50 [31]: > 50 µg/mL; neutralization IC80 [31]: > 50 µg/mL; neutralization IC50 [32]: 0.23 µg/mL; neutralization IC80 [32]: 0.938 µg/mL; neutralization IC50 [33]: > 50 µg/mL; neutralization IC80 [33]: > 50 µg/mL; neutralization IC50 [34]: 0.367 µg/mL; neutralization IC80 [34]: 11.8 µg/mL
